Measured values published in the supplement of paper PMC10567573.

B1: ETS1 (parent)
chain: FSEPSFITESYQTLHPISSEELLS
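Further: lentivirally expressed fusions sorted by FACS into six bins by GFP to DsRed ratio, PSI derived from sequencing read proportions per bin multiplied by bin number.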

Variants of: B1
Experiment: protein stability index of a GFP-peptide fusion (GPS, HEK-293T) (PSI 1-6); higher = more stable
Settings: c terminus: a fixed tail appended
FSEPSFITESVQTLHPISSEELLS [Y11V] gave a protein stability index of 1.78.
With FSEPSFITESRQTLHPISSEELLS [Y11R] the protein stability index was 1.82.
With FSEPSFITESLQTLHPISSEELLS [Y11L] the protein stability index was 1.71.
With FSEPSFITESQQTLHPISSEELLS [Y11Q] the protein stability index was 2.57.
Work on FSEPSFITESGQTLHPISSEELLS [Y11G] yielded a protein stability index of 2.57.
Variant FSEPSFITESMQTLHPISSEELLS [Y11M] has a protein stability index of 2.02.
For FSEPSFITESHQTLHPISSEELLS [Y11H], the protein stability index was 2.25.
Variant FSEPSFITESFQTLHPISSEELLS [Y11F] has a protein stability index of 1.73.
In the case of FSEPSFITESPQTLHPISSEELLS [Y11P], the protein stability index is reported as 3.21.
FSEPSFITESDQTLHPISSEELLS [Y11D] gave a protein stability index of 2.96.
In the case of FSEPSFITESIQTLHPISSEELLS [Y11I], the protein stability index is reported as 2.04.
Variant FSEPSFITESCQTLHPISSEELLS [Y11C] has a protein stability index of 1.67.
Variant FSEPSFITESTQTLHPISSEELLS [Y11T] has a protein stability index of 2.3.
FSEPSFITESAQTLHPISSEELLS [Y11A] showed a protein stability index of 2.21.
FSEPSFITESSQTLHPISSEELLS [Y11S] gave a protein stability index of 2.2.
For FSEPSFITESNQTLHPISSEELLS [Y11N], the protein stability index was 2.56.
For FSEPSFITESEQTLHPISSEELLS [Y11E], the protein stability index was 2.95.
For FSEPSFITESYQHLHPISSEELLS [T13H], the protein stability index was 1.62.
In the case of FSEPSFITESYQFLHPISSEELLS [T13F], the protein stability index is reported as 1.53.
FSEPSFITESYQCLHPISSEELLS [T13C] gave a protein stability index of 1.67.
In the case of FSEPSFITESYQALHPISSEELLS [T13A], the protein stability index is reported as 2.16.
For FSEPSFITESYQLLHPISSEELLS [T13L], the protein stability index was 1.99.
FSEPSFITESYQKLHPISSEELLS [T13K] showed a protein stability index of 1.93.
Work on FSEPSFITESYQYLHPISSEELLS [T13Y] yielded a protein stability index of 1.93.
With FSEPSFITESYQILHPISSEELLS [T13I] the protein stability index was 1.93.
In the case of FSEPSFITESYQSLHPISSEELLS [T13S], the protein stability index is reported as 2.35.
FSEPSFITESYQVLHPISSEELLS [T13V] showed a protein stability index of 2.21.
With FSEPSFITESYQDLHPISSEELLS [T13D] the protein stability index was 2.23.
In the case of FSEPSFITESYQQLHPISSEELLS [T13Q], the protein stability index is reported as 2.4.
Work on FSEPSFITESYQRLHPISSEELLS [T13R] yielded a protein stability index of 1.61.
FSEPSFITESYQMLHPISSEELLS [T13M] showed a protein stability index of 1.28.
In the case of FSEPSFITESYQWLHPISSEELLS [T13W], the protein stability index is reported as 2.54.
Work on FSEPSFITESYQGLHPISSEELLS [T13G] yielded a protein stability index of 1.9.
Work on FSEPSFITESYQELHPISSEELLS [T13E] yielded a protein stability index of 2.07.
For FSEPSFITESYQNLHPISSEELLS [T13N], the protein stability index was 1.68.
With FSEPSFITESYQPLHPISSEELLS [T13P] the protein stability index was 2.11.
For FSEPSFITECYQTLHPISSEELLS [S10C], the protein stability index was 1.53.
For FSEPSFITENYQTLHPISSEELLS [S10N], the protein stability index was 1.99.
FSEPSFITEWYQTLHPISSEELLS [S10W] gave a protein stability index of 1.5.
FSEPSFITERYQTLHPISSEELLS [S10R] gave a protein stability index of 2.16.
For FSEPSFITEGYQTLHPISSEELLS [S10G], the protein stability index was 1.72.
With FSEPSFITEKYQTLHPISSEELLS [S10K] the protein stability index was 2.25.
For FSEPSFITEMYQTLHPISSEELLS [S10M], the protein stability index was 2.02.
Work on FSEPSFITEVYQTLHPISSEELLS [S10V] yielded a protein stability index of 2.52.
Variant FSEPSFITELYQTLHPISSEELLS [S10L] has a protein stability index of 2.52.
With FSEPSFITEFYQTLHPISSEELLS [S10F] the protein stability index was 1.7.
FSEPSFITEQYQTLHPISSEELLS [S10Q] showed a protein stability index of 2.35.
Work on FSEPSFITEHYQTLHPISSEELLS [S10H] yielded a protein stability index of 2.06.
Variant FSEPSFITEYYQTLHPISSEELLS [S10Y] has a protein stability index of 1.74.
Work on FSEPSFITEIYQTLHPISSEELLS [S10I] yielded a protein stability index of 1.86.
Work on FSEPSFITEPYQTLHPISSEELLS [S10P] yielded a protein stability index of 2.62.
In the case of FSEPSFITETYQTLHPISSEELLS [S10T], the protein stability index is reported as 2.15.
In the case of FSEPSFITEAYQTLHPISSEELLS [S10A], the protein stability index is reported as 1.74.
Work on FSEPSFITEEYQTLHPISSEELLS [S10E] yielded a protein stability index of 3.
FSEPSFITEDYQTLHPISSEELLS [S10D] showed a protein stability index of 2.82.
FSEPSFYTESYQTLHPISSEELLS [I7Y] gave a protein stability index of 2.82.
For FSEPSFITESYQTEHPISSEELLS [L14E], the protein stability index was 2.33.
For FSEPSFITESYQTFHPISSEELLS [L14F], the protein stability index was 1.74.
With FSEPSFITESYQTRHPISSEELLS [L14R] the protein stability index was 2.07.
FSEPSFITESYQTTHPISSEELLS [L14T] gave a protein stability index of 2.5.
With FSEPSFITESYQTNHPISSEELLS [L14N] the protein stability index was 2.08.
In the case of FSEPSFITESYQTDHPISSEELLS [L14D], the protein stability index is reported as 2.44.
FSEPSFITESYQTQHPISSEELLS [L14Q] gave a protein stability index of 2.48.
Work on FSEPSFITESYQTMHPISSEELLS [L14M] yielded a protein stability index of 1.88.
With FSEPSFITESYQTYHPISSEELLS [L14Y] the protein stability index was 1.55.
With FSEPSFITESYQTKHPISSEELLS [L14K] the protein stability index was 2.19.
With FSEPSFITESYQTSHPISSEELLS [L14S] the protein stability index was 2.44.
Variant FSEPSFITESYQTHHPISSEELLS [L14H] has a protein stability index of 2.35.
In the case of FSEPSFITESYQTGHPISSEELLS [L14G], the protein stability index is reported as 2.19.
With FSEPSFITESYQTCHPISSEELLS [L14C] the protein stability index was 1.93.
FSEPSFITESYQTVHPISSEELLS [L14V] showed a protein stability index of 2.09.
Work on FSEPSFITESYQTWHPISSEELLS [L14W] yielded a protein stability index of 2.66.
FSEPSFITESYQTPHPISSEELLS [L14P] gave a protein stability index of 2.1.
FSEPSFITESYQTIHPISSEELLS [L14I] gave a protein stability index of 1.94.
For FSEPSFITESYQTAHPISSEELLS [L14A], the protein stability index was 2.08.
In the case of FSEPSFITESYQTLRPISSEELLS [H15R], the protein stability index is reported as 2.82.
FSEPSFITESYQTLKPISSEELLS [H15K] gave a protein stability index of 2.33.
With FSEPSFITESYQTLIPISSEELLS [H15I] the protein stability index was 2.03.
Work on FSEPSFITESYQTLCPISSEELLS [H15C] yielded a protein stability index of 2.17.
Work on FSEPSFITESYQTLMPISSEELLS [H15M] yielded a protein stability index of 1.96.
With FSEPSFITESYQTLGPISSEELLS [H15G] the protein stability index was 1.75.
For FSEPSFITESYQTLDPISSEELLS [H15D], the protein stability index was 2.48.
Work on FSEPSFITESYQTLVPISSEELLS [H15V] yielded a protein stability index of 2.49.
Variant FSEPSFITESYQTLQPISSEELLS [H15Q] has a protein stability index of 2.29.
FSEPSFITESYQTLSPISSEELLS [H15S] gave a protein stability index of 1.91.
FSEPSFITESYQTLLPISSEELLS [H15L] gave a protein stability index of 1.99.
For FSEPSFITESYQTLWPISSEELLS [H15W], the protein stability index was 1.67.
Work on FSEPSFITESYQTLTPISSEELLS [H15T] yielded a protein stability index of 2.38.
Work on FSEPSFITESYQTLAPISSEELLS [H15A] yielded a protein stability index of 2.27.
With FSEPSFITESYQTLNPISSEELLS [H15N] the protein stability index was 1.71.
Work on FSEPSFITESYQTLYPISSEELLS [H15Y] yielded a protein stability index of 1.51.
FSEPSFITESYQTLPPISSEELLS [H15P] showed a protein stability index of 2.27.
For FSEPSFITESYQTLFPISSEELLS [H15F], the protein stability index was 1.95.
FSEPSFITESYQTLEPISSEELLS [H15E] gave a protein stability index of 2.12.
